Test results taken from patent publication US7078491 (Amgen, dated 2006).

Target: T1, flag-tagged hTERT protein from transfected 293T cells (human, UniProt O14746 1-1132)
T1 construct: also called hTERT from 293T cells; 293T lysate
Experiment: immunoprecipitation from 293T lysate, Western blot with peptide polyclonal antibody
Experimental: Immunoprecipitation experiments were also carried out to verify the specificity of the 4A5 and 4B5 monoclonal antibodies. Protein G Sepharose beads (Pharmacia) were incubated with anti-mouse IgG (Amersham Biotech) in CHAPS buffer (0.5% CHAPS, 10 mM TRIS, 1 mM NaCl, 10% glycerol, 1 mM DTT, RNase inhibitor, Complete Protease Inhibitor; Boehringer Mannheim) at room temperature for 1 to 4 hours. The beads were washed and then incubated again at room temperature for 1 to 4 hours with 2 µg of one of the following antibodies: anti-GST, peptide polyclonal antibody, RT polyclonal antibody, 4A5 monoclonal antibody, 4B5 monoclonal antibody. For the negative control 4G6 antibody, the beads were incubated with 4G6 antibody in CHAPS buffer.
Following the incubation, the beads were washed with the aforementioned buffer and then incubated in the aforementioned buffer containing either 50 µl of hTERT-s200 generated by the TNT reaction on rabbit reticulocyte (see upper panels in FIG. 2) or 100 µl of 293T lysate (see lower panel in FIG. 2) for 1 to 4 hours at 4° C. The beads were washed again in the aforementioned buffer, the excess buffer removed form the beads and suspended in 4× SDS loading dye (see Sambrook et al, supra.). […] Western blotting was carried out as described above and probed with 0.28 µg/ml of peptide polyclonal hTERT antibody and binding was detected with the ECL method. […]

T1 sequence (O14746 whole entry): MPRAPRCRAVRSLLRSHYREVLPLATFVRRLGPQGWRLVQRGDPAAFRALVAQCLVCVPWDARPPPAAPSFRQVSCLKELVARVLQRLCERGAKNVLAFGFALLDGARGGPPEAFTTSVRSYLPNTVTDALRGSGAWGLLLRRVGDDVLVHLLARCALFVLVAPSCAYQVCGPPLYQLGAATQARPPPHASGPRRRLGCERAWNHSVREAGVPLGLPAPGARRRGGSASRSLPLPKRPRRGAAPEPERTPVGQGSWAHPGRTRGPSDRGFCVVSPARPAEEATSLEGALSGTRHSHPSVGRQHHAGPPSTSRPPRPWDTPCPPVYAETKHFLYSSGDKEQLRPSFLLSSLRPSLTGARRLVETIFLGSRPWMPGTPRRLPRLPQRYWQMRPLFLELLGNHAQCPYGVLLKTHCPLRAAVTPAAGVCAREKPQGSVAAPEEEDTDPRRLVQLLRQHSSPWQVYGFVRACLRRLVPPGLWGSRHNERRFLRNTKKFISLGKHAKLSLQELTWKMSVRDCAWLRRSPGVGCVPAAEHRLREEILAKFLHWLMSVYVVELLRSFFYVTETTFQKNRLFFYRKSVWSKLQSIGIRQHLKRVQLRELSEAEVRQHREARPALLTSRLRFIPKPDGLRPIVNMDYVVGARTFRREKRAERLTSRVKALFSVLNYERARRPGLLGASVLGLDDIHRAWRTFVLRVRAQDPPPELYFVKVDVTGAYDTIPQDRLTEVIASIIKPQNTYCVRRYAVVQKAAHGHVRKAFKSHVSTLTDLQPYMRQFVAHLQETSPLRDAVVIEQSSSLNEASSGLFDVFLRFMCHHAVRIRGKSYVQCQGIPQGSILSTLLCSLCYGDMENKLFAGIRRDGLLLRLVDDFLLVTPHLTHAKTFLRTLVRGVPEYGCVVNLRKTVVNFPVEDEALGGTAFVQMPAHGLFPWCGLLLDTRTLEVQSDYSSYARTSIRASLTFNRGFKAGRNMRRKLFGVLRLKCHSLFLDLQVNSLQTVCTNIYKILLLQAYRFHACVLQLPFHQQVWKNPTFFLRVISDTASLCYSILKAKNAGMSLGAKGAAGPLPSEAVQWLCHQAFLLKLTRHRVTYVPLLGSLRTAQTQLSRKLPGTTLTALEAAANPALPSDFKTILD

B1: 4A5 monoclonal antibody (hybridoma 4A5, ATCC PTA-2412) (antibody, V domains shown)
VH: EVKLVESGGGLVKPGGSLKLSCAASGFTFSSYAMSWVRQTPEKRLEWVASISSGGNTYYPDNVQGRFTISRDNARNILYLQMSSLRSEDTAMFYCAREGVYDTYGGVDYWGQGTTLTVSS
VL: DIVLTQSPTSLAVSLGQRATISCKASQSVDYDGDSFINWYQQTPGQPPKLLIYAASNLASGIPARFSGSGSGTDFTLNIHPVEEEDAATYYCQQSNEAPPTFGGGTKLEI
notes: Mouse monoclonal from hybridoma, characterized as IgG2B type, kappa light chain primers used; also called 4A5 mAb; 45A
- binding result: binds
